Reference: US10942183B2, “Methods of detecting progesterone receptor and of detecting an expression level” (REGENTS OF THE UNIVERSITY OF MINNESOTA, priority 2017, dated 2021)

System: T47D cells
Assay: Mammosphere formation in T47D cells
Assay type: cell-based, human
Details: T47D cells, EGF 20 ng/ml, 14 days
Experimental: Primary Mammospheres: Adherent cells were washed with PBS and dissociated enzymatically in 0.25% trypsin-EDTA (Invitrogen Corporation, Carlsbad, Calif.). Cells were sieved through a 40-μm sieve (BD FALCON, BD Biosciences, Bedford, Mass.) and analyzed microscopically for single-cellularity. Single cells were plated in ultra-low attachment plates (Corning, Inc., Corning, N.Y.) and cultured in a humid incubator. Cells were grown in a serum-free mammary epithelial basal medium (MEBM; Lonza Group, Basel, Switzerland) containing 1% B27 Supplement (Invitrogen Corporation, Carlsbad, Calif.), 1% penicillin-streptomycin (Invitrogen Corporation, Carlsbad, Calif.), 5 μg/ml insulin (Invitrogen Corporation, Carlsbad, Calif.), 20 ng/ml EGF (Sigma-Aldrich, St. Louis, Mo.), 1 ng/ml hydrocortisone (Sigma-Aldrich, St. Louis, Mo.), and 100 μM β-mercaptoethanol. […] Mammosphere Forming Efficiency (MFE) % was calculated by the number of mammospheres per well/number of cells seeded per well.
Secondary Mammospheres: Primary mammospheres were collected by centrifugation (5 min, 1000 rpm), and dissociated enzymatically in 0.25% typsin-EDTA. Cells were sieved through a 40-μm tip strainer (Bel-Art SP Scienceware, South Wayne, N.J.) and analyzed microscopically for single-cellularity. […] Mammosphere Forming Efficiency (MFE) % was calculated by the number of mammospheres per well/number of cells seeded per well. […]

B1: EGF: growth factor in mammosphere culture media, 20 ng/ml (protein, UniProt P01133 23-1207, looked up)
Pro-epidermal growth factor: PQHWSCPEGTLAGNGNSTCVGPAPFLIFSHGNSIFRIDTEGTNYEQLVVDAGVSVIMDFHYNEKRIYWVDLERQLLQRVFLNGSRQERVCNIEKNVSGMAINWINEEVIWSNQQEGIITVTDMKGNNSHILLSALKYPANVAVDPVERFIFWSSEVAGSLYRADLDGVGVKALLETSEKITAVSLDVLDKRLFWIQYNREGSNSLICSCDYDGGSVHISKHPTQHNLFAMSLFGDRIFYSTWKMKTIWIANKHTGKDMVRINLHSSFVPLGELKVVHPLAQPKAEDDTWEPEQKLCKLRKGNCSSTVCGQDLQSHLCMCAEGYALSRDRKYCEDVNECAFWNHGCTLGCKNTPGSYYCTCPVGFVLLPDGKRCHQLVSCPRNVSECSHDCVLTSEGPLCFCPEGSVLERDGKTCSGCSSPDNGGCSQLCVPLSPVSWECDCFPGYDLQLDEKSCAASGPQPFLLFANSQDIRHMHFDGTDYGTLLSQQMGMVYALDHDPVENKIYFAHTALKWIERANMDGSQRERLIEEGVDVPEGLAVDWIGRRFYWTDRGKSLIGRSDLNGKRSKIITKENISQPRGIAVHPMAKRLFWTDTGINPRIESSSLQGLGRLVIASSDLIWPSGITIDFLTDKLYWCDAKQSVIEMANLDGSKRRRLTQNDVGHPFAVAVFEDYVWFSDWAMPSVMRVNKRTGKDRVRLQGSMLKPSSLVVVHPLAKPGADPCLYQNGGCEHICKKRLGTAWCSCREGFMKASDGKTCLALDGHQLLAGGEVDLKNQVTPLDILSKTRVSEDNITESQHMLVAEIMVSDQDDCAPVGCSMYARCISEGEDATCQCLKGFAGDGKLCSDIDECEMGVPVCPPASSKCINTEGGYVCRCSEGYQGDGIHCLDIDECQLGEHSCGENASCTNTEGGYTCMCAGRLSEPGLICPDSTPPPHLREDDHHYSVRNSDSECPLSHDGYCLHDGVCMYIEALDKYACNCVVGYIGERCQYRDLKWWELRHAGHGQQQKVIVVAVCVVVLVMLLLLSLWGAHYYRTQKLLSKNPKNPYEESSRDVRSRRPADTEDGMSSCPQPWFVVIKEHQDLKNGGQPVAGEDGQAADGSMQPTSWRQEPQLCGMGTEQGCWIPVSSDKGSCPQVMERSFHMPSYGTQTLEGGVEKPHSLLSANPLWQQRALDPPHQMELTQ
modifications: Pro-epidermal growth factor
notes: growth factor in mammosphere culture media, 20 ng/ml
- mammosphere formation on removal and add-back of EGF: clear requirement for growth factor signaling
